# Experimental data as given in paper PMC8458385, “Molecular basis for PICS-mediated piRNA biogenesis and cell division” (Nature Communications, 2021).
# Residue numbers refer to the chain shown, from its start. Numbers in names are those of the source.
# T1: TOFU-6^RRM D26A/W27A (C. elegans, UniProt Q09293 2-92, D26A | W27A)
# T1 construct: TOFU-6, C. elegans, RRM domain, residues 2-92, with D26A and W27A; Cloned into pET28-MHL; also called D26A/W27A(TOFU-6RRM); source: E. coli BL21(DE3), purified (Ni-NTA, TEV cleavage, second Ni-NTA); not shown: His tag (inferred from the Ni-NTA purification), N-terminal, cleaved
# T1 sequence (looked up): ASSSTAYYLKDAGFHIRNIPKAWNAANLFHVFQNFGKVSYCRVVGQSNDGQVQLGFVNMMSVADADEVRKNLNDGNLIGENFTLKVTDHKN
# T2: PICS-1^5-282 (almost full-length PICS-1) (C. elegans, UniProt O76616 5-282)
# T2 construct: Cloned into pET28-MHL; Two copies in the 2:2:2 complex with ERH-2 and TOFU-6^RRM; source: E. coli BL21(DE3), purified (Ni-NTA, TEV cleavage, second Ni-NTA); not shown: His tag (inferred from the Ni-NTA purification), N-terminal, cleaved
# T2 sequence (looked up): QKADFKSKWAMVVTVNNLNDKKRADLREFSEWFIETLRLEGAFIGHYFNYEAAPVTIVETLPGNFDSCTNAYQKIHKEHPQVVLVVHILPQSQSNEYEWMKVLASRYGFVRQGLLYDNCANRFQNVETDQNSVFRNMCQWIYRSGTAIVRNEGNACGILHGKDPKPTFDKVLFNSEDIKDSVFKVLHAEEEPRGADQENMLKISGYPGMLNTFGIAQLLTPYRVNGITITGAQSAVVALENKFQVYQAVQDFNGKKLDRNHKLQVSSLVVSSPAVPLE
# T3: PICS-1^5-282 (C. elegans, UniProt O76616 5-282)
# T3 construct: Cloned into pET28-MHL; also called almost full-length PICS-1; source: E. coli BL21(DE3), purified (Ni-NTA, TEV, second Ni-NTA); not shown: His tag (from the Ni-NTA purification), N-terminal, cleaved
# T3 sequence (looked up): T2 sequence (looked up)
# T4: ERH-2 D67A (C. elegans, UniProt Q20057 1-113, D67A)
# T4 construct: ERH-2, C. elegans, with D67A; Cloned into pET28-MHL; also called D67A(ERH-2); source: E. coli BL21(DE3), purified (Ni-NTA, TEV cleavage, second Ni-NTA); not shown: His tag (inferred from the Ni-NTA purification), N-terminal, cleaved
# T4 sequence (looked up): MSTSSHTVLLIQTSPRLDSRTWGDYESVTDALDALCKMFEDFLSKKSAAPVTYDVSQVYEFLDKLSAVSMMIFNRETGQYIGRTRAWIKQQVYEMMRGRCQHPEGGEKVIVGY
# T5: ERH-2^1-103-(Gly-Ser-Ser)7-PICS-1^180-200 fusion protein (C. elegans, UniProt Q20057 1-103; O76616 180-200)
# T5 construct: ERH-2, C. elegans, residues 1-103; 21-aa linker (Gly-Ser-Ser)7; PICS-1 (PID-3), C. elegans, EBM, residues 180-200; the methods describe only the 1-103 fusion; also called ERH-2-(GSS)7-PICS-1180-200; ERH-2-(GSS)7-PICS-1; source: E. coli BL21(DE3), purified (Ni-NTA, TEV cleavage, second Ni-NTA, Superdex 75); not shown: His tag (inferred from the Ni-NTA purification), N-terminal, cleaved
# T5 chain: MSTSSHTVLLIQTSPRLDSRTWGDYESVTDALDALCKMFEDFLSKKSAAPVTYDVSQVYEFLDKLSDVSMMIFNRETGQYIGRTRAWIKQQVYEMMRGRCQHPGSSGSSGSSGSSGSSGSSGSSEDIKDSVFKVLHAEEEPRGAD
# T6: ERH-2 (C. elegans, UniProt Q20057 1-113)
# T6 construct: ERH-2, C. elegans, amplified from a cDNA library; also called wild type ERH-2; source: E. coli BL21(DE3), purified (Ni-NTA, TEV, second Ni-NTA); not shown: His tag (from the Ni-NTA purification), N-terminal, cleaved
# T6 sequence (looked up): T4 sequence (looked up) with A67D
# T7: PICS-1^5-200 (PICS-1^ΔRRM) (C. elegans, UniProt O76616 5-200)
# T7 construct: PICS-1 (PID-3), C. elegans, residues 5-200 (lacks the RRM domain); Cloned into pET28-MHL; source: E. coli BL21(DE3), purified (Ni-NTA, TEV cleavage, second Ni-NTA); not shown: His tag (inferred from the Ni-NTA purification), N-terminal, cleaved
# T7 sequence (looked up): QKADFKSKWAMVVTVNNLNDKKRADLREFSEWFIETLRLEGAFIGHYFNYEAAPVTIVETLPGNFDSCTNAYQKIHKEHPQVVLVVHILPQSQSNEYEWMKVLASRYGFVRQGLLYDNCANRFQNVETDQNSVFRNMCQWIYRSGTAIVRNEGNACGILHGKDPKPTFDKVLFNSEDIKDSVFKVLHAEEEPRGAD
# B1: PICS-1(PID-3) RRM domain (PICS-1^RRM, residues 201-282) (domain or fragment, C. elegans, UniProt O76616 201-282, looked up)
# chain: QENMLKISGYPGMLNTFGIAQLLTPYRVNGITITGAQSAVVALENKFQVYQAVQDFNGKKLDRNHKLQVSSLVVSSPAVPLE
# notes: Homodimer by gel filtration and in the crystal structure; The methods describe co-expression with TOFU-6^RRM from pETDuet-1 for the complex; the results say that the two domains were purified each for ITC; also called WT; source: E. coli BL21(DE3), purified (Ni-NTA, TEV cleavage, second Ni-NTA, gel filtration); not shown: His tag (inferred from the Ni-NTA purification), N-terminal, cleaved
# B2: PICS-1^RRM K246A/F247A (domain or fragment, C. elegans, UniProt O76616 201-282, looked up)
# chain: B1 chain with K46A, F47A
# notes: Cloned into pET28-MHL; Some legends and the strain list print K245A/F246A for the transgene; also called K246A/F247A(PICS-1RRM); source: E. coli BL21(DE3), purified (Ni-NTA, TEV cleavage, second Ni-NTA); not shown: His tag (inferred from the Ni-NTA purification), N-terminal, cleaved
# B3: PICS-1^RRM Y250A/Q251A (domain or fragment, C. elegans, UniProt O76616 201-282, looked up)
# chain: B1 chain with Y50A, Q51A
# notes: Cloned into pET28-MHL; also called Y250A/Q251A(PICS-1RRM); source: E. coli BL21(DE3), purified (Ni-NTA, TEV cleavage, second Ni-NTA); not shown: His tag (inferred from the Ni-NTA purification), N-terminal, cleaved
# B4: PICS-1^RRM F217E (domain or fragment, C. elegans, UniProt O76616 201-282, looked up)
# chain: B1 chain with F17E
# notes: Cloned into pET28-MHL; also called F217E(PICS-1RRM); source: E. coli BL21(DE3), purified (Ni-NTA, TEV cleavage, second Ni-NTA, gel filtration); not shown: His tag (inferred from the Ni-NTA purification), N-terminal, cleaved
# B5: TOFU-6 RRM domain (TOFU-6^RRM, residues 2-92) (domain or fragment, C. elegans, UniProt Q09293 2-92, looked up)
# chain: T1 sequence (looked up) with A25D, A26W
# notes: TOFU-6, C. elegans, RRM domain, residues 2-92; source: E. coli BL21(DE3), purified (Ni-NTA, TEV cleavage, second Ni-NTA); not shown: His tag (inferred from the Ni-NTA purification), N-terminal, cleaved
# B6: TOFU-6^RRM (residues 2-92) (domain or fragment, C. elegans, UniProt Q09293 2-92, looked up)
# chain: T1 sequence (looked up) with A25D, A26W
# notes: TOFU-6, C. elegans, RRM domain, residues 2-92; Gene codon-optimised and synthesised; for the crystal co-expressed with PICS-1^RRM from a modified pETDuet-1; also called TOFU-6 RRM domain; TOFU-6^C; source: E. coli BL21(DE3), purified (Ni-NTA, TEV, second Ni-NTA; complex with PICS-1^RRM also Superdex 75); not shown: His tag (from the Ni-NTA purification), N-terminal, cleaved
# B7: PICS-1^RRM F217E (domain or fragment, C. elegans, UniProt O76616 201-282, looked up)
# chain: B1 chain with F17E
# notes: Cloned into pET28-MHL; the homodimer is disrupted by the mutation; source: E. coli BL21(DE3), purified (Ni-NTA, TEV, second Ni-NTA, Superdex 75); not shown: His tag (from the Ni-NTA purification), N-terminal, cleaved
# B8: SUMO-PICS-1^180-200 (ERH-2 binding motif, EBM) (domain or fragment, C. elegans, UniProt O76616 180-200, looked up)
# chain: EDIKDSVFKVLHAEEEPRGAD
# notes: Fused to the C-terminus of SUMO (pET28-SUMO); the Kds are for the SUMO fusion; also called PICS-1EBM; source: E. coli BL21(DE3), purified (Ni-NTA); not shown: SUMO, N-terminal, kept
# B9: SUMO-PID-1^50-70 (domain or fragment, C. elegans, UniProt Q19541 50-70, looked up)
# chain: TNLHRKVTLSDRFELAALGYE
# notes: PID-1, C. elegans, residues 50-70; Fused to the C-terminus of SUMO; the Kds are for the SUMO fusion; also called PID-1 fragment; source: E. coli BL21(DE3), purified (Ni-NTA); not shown: SUMO, N-terminal, kept
# B10: SUMO-fused TOST-1^34-54 (domain or fragment, C. elegans, UniProt Q18490 34-54, looked up)
# chain: NKRITLNERFGVLEKGYTIQA
# notes: TOST-1, C. elegans, residues 34-54; Cloned into pET28-SUMO; also called TOST-1 fragment; source: E. coli BL21(DE3), purified (Ni-NTA); not shown: SUMO, N-terminal, kept
# B11: SUMO-TOST-1^34-54 (domain or fragment, C. elegans, UniProt Q18490 34-54, looked up)
# chain: NKRITLNERFGVLEKGYTIQA
# notes: TOST-1, C. elegans, residues 34-54; Fused to the C-terminus of SUMO (pET28-SUMO); the Kds are for the SUMO fusion; also called TOST-1 fragment; source: E. coli BL21(DE3), purified (Ni-NTA); not shown: SUMO, N-terminal, kept
# B12: ERH-2 (natural protein, C. elegans, UniProt Q20057 1-113, looked up)
# chain: T4 sequence (looked up) with A67D
# notes: ERH-2, C. elegans, amplified from a cDNA library; also called ERH-2 wild type; source: E. coli BL21(DE3), purified (Ni-NTA, TEV cleavage, second Ni-NTA); not shown: His tag (inferred from the Ni-NTA purification), N-terminal, cleaved
# Assays:
# [1] = molecular target: the molecule itself; test: SEC; gel filtration of PICS-1^RRM wild type and F217E alone, HiLoad 16/600 Superdex 75; 20 mM Tris, 200 mM NaCl (pH 8.5 in the methods, pH 7.5 in the legend)
# [2] = molecular target: B5; test: ITC; MicroCal ITC200, 25 °C; 20 mM Tris pH 8.5, 200 mM NaCl or 20 mM MES pH 6.5, 200 mM NaCl; 1-2 mM protein or peptide in the syringe titrated into 30-50 μM protein in the cell; one-site model; Kd mean ± SD of a minimum of two experiments; conditions: both partners purified
# TOFU-6^RRM D26A/W27A = molecular target: T1, TOFU-6^RRM D26A/W27A; test: as above; conditions: both partners purified
# [3] = molecular target: T2, PICS-1^5-282 (almost full-length PICS-1); test: SEC; ERH-2 and TOFU-6^RRM mixed with PICS-1 5-282, PICS-1 5-200 or PICS-1 ΔEBM; Superose 6 Increase 10/300 GL; 20 mM Tris pH 8.5, 200 mM NaCl; peaks analysed by SDS-PAGE; conditions: both partners purified
# PICS-1^5-282 = molecular target: T3, PICS-1^5-282; test: SEC; ERH-2 and TOFU-6^RRM mixed with PICS-1 constructs, Superose 6 Increase 10/300 GL, 20 mM Tris hydrochloride pH 8.5, 200 mM NaCl; fractions on SDS-PAGE; conditions: both partners purified
# [4] = molecular target: B6; test: ITC; MicroCal ITC200, 25 °C, 20 mM Tris pH 8.5, 200 mM NaCl or 20 mM MES pH 6.5, 200 mM NaCl; 1–2 mM in the syringe into 30–50 μM in the cell; one-site binding model; conditions: both partners purified
# ERH-2 D67A = molecular target: T4, ERH-2 D67A; test: ITC; MicroCal ITC200, 25 °C; 20 mM Tris pH 8.5, 200 mM NaCl or 20 mM MES pH 6.5, 200 mM NaCl; 1-2 mM protein or peptide in the syringe titrated into 30-50 μM protein in the cell; one-site model; Kd mean ± SD of a minimum of two experiments; conditions: both partners purified
# ERH-2 [5] = molecular target: B12; test: as above; conditions: both partners purified
# [6] = molecular target: T5, ERH-2^1-103-(Gly-Ser-Ser)7-PICS-1^180-20 …; test: as above; conditions: both partners purified
# ERH-2 [7] = molecular target: T6, ERH-2; test: ITC; MicroCal ITC200, 25 °C, 20 mM Tris pH 8.5, 200 mM NaCl or 20 mM MES pH 6.5, 200 mM NaCl; 1–2 mM in the syringe into 30–50 μM in the cell; one-site binding model; conditions: both partners purified
# [8] = molecular target: T7, PICS-1^5-200 (PICS-1^ΔRRM); test: SEC; ERH-2 and TOFU-6^RRM mixed with PICS-1 5-282, PICS-1 5-200 or PICS-1 ΔEBM; Superose 6 Increase 10/300 GL; 20 mM Tris pH 8.5, 200 mM NaCl; peaks analysed by SDS-PAGE; conditions: both partners purified
binder,measurement,setting,value
B1,binding result,[1],binds
same,stoichiometry N,[2],1.1
same,Kd,TOFU-6^RRM D26A/W27A,30 µM
same,stoichiometry N,TOFU-6^RRM D26A/W27A,0.7
B2,Kd,[2],17 µM
same,stoichiometry N,[2],1.1
B3,Kd,[2],21 µM
same,stoichiometry N,[2],1.2
B4,stoichiometry N,[2],0.7
B5,binding result,[3],binds
B6,binding result,PICS-1^5-282,binds
B7,Kd,[4],0.57 µM
B8,stoichiometry N,ERH-2 D67A,0.8
same,stoichiometry N,ERH-2 [5],0.7
B9,stoichiometry N,ERH-2 [5],1
same,stoichiometry N,[6],1.3
B10,Kd,ERH-2 [7],3.2 µM
B11,stoichiometry N,ERH-2 [5],0.9
same,Kd,[6],4.9 µM
same,stoichiometry N,[6],0.9
B12,binding result,[3],binds
same,binding result,[8],binds
